B1: Azoarcus group I ribozyme (parent)
chain: GUGCCUUGCGCCGGGAAACCACGCAAGGGAUGGUGUCAAAUUCGGCGAAACCUAAGCGCCCGCCCGGGCGUAUGGCAACGCCGAGCCAAGCUUCGGCGCCUGCGCCGAUGAAGGUGUAGAGACUAGACGGCACCCACCUAAGGCAAACGCUAUGGUGAAGGCAUAGUCCAGGGAGUGGCGAAAGUCACACAAACCGG

Variants of: B1
Test: reverse-splicing fitness (ratio to wild type); higher = more active; in vitro selection; Mg2+ level not given
Outline: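 An in vitro group I ribozyme library with randomized positions was T7-transcribed and gel-purified. In triplicate, 10 pmol RNA in EPPS pH 7.5 was reacted with 50 pmoles of a 30-nt RNA substrate for 1 h at 37 °C across several added MgCl2 levels (1–48 mM), then stopped with EDTA. Products were reverse transcribed from a substrate-complementary primer, PCR-amplified and sequenced (HiSeq 4000). Fitness is a variant's read proportion after selection over that before, normalised to wild type.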

| Variant | reverse-splicing fitness |
| --- | --- |
| C82G A111U A145G C150G | 0.0339 |
| C82G A111U A145G C150G C169A | 0.00977 |
| C82G A111U A145G C150G C169A U176A | 0.0133 |
| C82G A111U A145G C150G C169A U176C | 0.0129 |
| C82G A111U A145G C150G C169A U176G | 0.00877 |
| C82G A111U A145G C150G C169G | 0.00715 |
| C82G A111U A145G C150G C169G U176A | 0.0107 |
| C82G A111U A145G C150G C169G U176C | 0.0129 |
| C82G A111U A145G C150G C169G U176G | 0.0062 |
| C82G A111U A145G C150G C169U | 0.00972 |
| C82G A111U A145G C150G C169U U176A | 0.0125 |
| C82G A111U A145G C150G C169U U176C | 0.0134 |
| C82G A111U A145G C150G C169U U176G | 0.00808 |
| C82G A111U A145G C150G U176A | 0.0137 |
| C82G A111U A145G C150G U176C | 0.0285 |
| C82G A111U A145G C150G U176G | 0.00893 |
| C82G A111U A145G C150U | 0.298 |
| C82G A111U A145G C150U C169A | 0.0114 |
| C82G A111U A145G C150U C169A U176A | 0.0163 |
| C82G A111U A145G C150U C169A U176C | 0.0164 |
| C82G A111U A145G C150U C169A U176G | 0.00701 |

| Variant | reverse-splicing fitness |
| --- | --- |
| C82G A111U A145G C150U C169G | 0.00982 |
| C82G A111U A145G C150U C169G U176A | 0.0141 |
| C82G A111U A145G C150U C169G U176C | 0.0191 |
| C82G A111U A145G C150U C169G U176G | 0.0058 |
| C82G A111U A145G C150U C169U | 0.0119 |
| C82G A111U A145G C150U C169U U176A | 0.0152 |
| C82G A111U A145G C150U C169U U176C | 0.0146 |
| C82G A111U A145G C150U C169U U176G | 0.00638 |
| C82G A111U A145G C150U U176A | 0.144 |
| C82G A111U A145G C150U U176C | 0.196 |
| C82G A111U A145G C150U U176G | 0.0447 |
| C82G A111U A145G C169A | 0.0087 |
| C82G A111U A145G C169A U176A | 0.0174 |
| C82G A111U A145G C169A U176C | 0.0263 |
| C82G A111U A145G C169A U176G | 0.00602 |
| C82G A111U A145G C169G | 0.00953 |
| C82G A111U A145G C169G U176A | 0.0187 |
| C82G A111U A145G C169G U176C | 0.0258 |
| C82G A111U A145G C169G U176G | 0.00557 |
| C82G A111U A145G C169U | 0.0131 |
| C82G A111U A145G C169U U176A | 0.0134 |

| Variant | reverse-splicing fitness |
| --- | --- |
| C82G A111U A145G C169U U176C | 0.0155 |
| C82G A111U A145G C169U U176G | 0.00532 |
| C82G A111U A145G U176A | 0.197 |
| C82G A111U A145G U176C | 0.244 |
| C82G A111U A145G U176G | 0.061 |
| C82G A111U A145U | 0.387 |
| C82G A111U A145U C150A | 0.0284 |
| C82G A111U A145U C150A C169A | 0.0096 |
| C82G A111U A145U C150A C169A U176A | 0.0149 |
| C82G A111U A145U C150A C169A U176C | 0.0126 |
| C82G A111U A145U C150A C169A U176G | 0.00732 |
| C82G A111U A145U C150A C169G | 0.00845 |
| C82G A111U A145U C150A C169G U176A | 0.014 |
| C82G A111U A145U C150A C169G U176C | 0.0144 |
| C82G A111U A145U C150A C169G U176G | 0.0066 |
| C82G A111U A145U C150A C169U | 0.00955 |
| C82G A111U A145U C150A C169U U176A | 0.0141 |
| C82G A111U A145U C150A C169U U176C | 0.0129 |
| C82G A111U A145U C150A C169U U176G | 0.00579 |
| C82G A111U A145U C150A U176A | 0.0235 |
| C82G A111U A145U C150A U176C | 0.0315 |

| Variant | reverse-splicing fitness |
| --- | --- |
| C82G A111U A145U C150A U176G | 0.0115 |
| C82G A111U A145U C150G | 0.0323 |
| C82G A111U A145U C150G C169A | 0.00951 |
| C82G A111U A145U C150G C169A U176A | 0.0117 |
| C82G A111U A145U C150G C169A U176C | 0.0124 |
| C82G A111U A145U C150G C169A U176G | 0.00706 |
| C82G A111U A145U C150G C169G | 0.00766 |
| C82G A111U A145U C150G C169G U176A | 0.0083 |
| C82G A111U A145U C150G C169G U176C | 0.00646 |
| C82G A111U A145U C150G C169G U176G | 0.00649 |
| C82G A111U A145U C150G C169U | 0.00956 |
| C82G A111U A145U C150G C169U U176A | 0.00836 |
| C82G A111U A145U C150G C169U U176C | 0.0115 |
| C82G A111U A145U C150G C169U U176G | 0.00664 |
| C82G A111U A145U C150G U176A | 0.0141 |
| C82G A111U A145U C150G U176C | 0.0254 |
| C82G A111U A145U C150G U176G | 0.0057 |
| C82G A111U A145U C150U | 0.239 |
| C82G A111U A145U C150U C169A | 0.00988 |
| C82G A111U A145U C150U C169A U176A | 0.0143 |
